Measured values: patent US20200369777A1 (Bristol-Myers Squibb, published 2020)

How the values were obtained:
human OX40 [1] = target: T1, human OX40 (human, UniProt P43489 29-277); test: cell-based or functional assay
T1 sequence: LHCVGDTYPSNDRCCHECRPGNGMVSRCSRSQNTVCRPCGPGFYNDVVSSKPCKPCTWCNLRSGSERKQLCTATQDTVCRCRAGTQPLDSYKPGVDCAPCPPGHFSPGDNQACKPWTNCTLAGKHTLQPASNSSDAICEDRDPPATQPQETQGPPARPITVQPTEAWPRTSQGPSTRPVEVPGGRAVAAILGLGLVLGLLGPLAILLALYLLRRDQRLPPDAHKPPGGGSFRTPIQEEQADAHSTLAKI

human OX40 [2] = target: T1, human OX40; test: flow cytometry, binding to activated human T cells
mouse OX40 = target: T2, mouse OX40 (mouse, UniProt P47741 20-272); test: flow cytometry, binding to activated mouse T cells
T2 construct: whole, on cells; also called murine OX40
T2 sequence (looked up): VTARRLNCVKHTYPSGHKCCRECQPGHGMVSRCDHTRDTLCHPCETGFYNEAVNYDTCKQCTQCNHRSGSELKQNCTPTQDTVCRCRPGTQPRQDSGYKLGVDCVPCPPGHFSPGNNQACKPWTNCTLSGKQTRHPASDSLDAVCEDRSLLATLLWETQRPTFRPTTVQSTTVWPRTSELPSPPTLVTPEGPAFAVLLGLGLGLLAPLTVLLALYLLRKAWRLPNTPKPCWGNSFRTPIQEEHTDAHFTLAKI

cynomolgus OX40 = target: T3, cynomolgus OX40 (cynomolgus, UniProt P43489 29-277 (human entry)); test: flow cytometry, binding to activated cynomolgus T cells
T3 chain: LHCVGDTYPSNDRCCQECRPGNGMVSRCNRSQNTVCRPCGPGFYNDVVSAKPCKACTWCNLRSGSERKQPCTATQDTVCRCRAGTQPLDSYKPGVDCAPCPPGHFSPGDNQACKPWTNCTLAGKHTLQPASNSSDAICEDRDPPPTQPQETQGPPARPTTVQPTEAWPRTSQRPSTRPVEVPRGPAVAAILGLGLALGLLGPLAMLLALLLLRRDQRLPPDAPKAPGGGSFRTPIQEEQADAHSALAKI

human OX40 [3] = target: T1, human OX40; test: Flow cytometry receptor occupancy on human CD4+ T cells cultured with CHO-OKT3-CD32A cells
human OX40 [4] = target: T1, human OX40; test: as above; remark: listed apart in the source
human OX40 [5] = target: T1, human OX40; test: Flow cytometry on human CD4+ T cells cultured with CHO-OKT3-CD32A cells; bound OX40.21 detected with APC anti-human Fc. Total surface OX40 changes along the same titration
Method: Briefly, total T cells were purified from human whole blood using Ficoll gradient centrifugation. CD4+ T cells were isolated from PBMCs using the Miltenyi CD4+ isolation kit. Isolated T cells were cultured in the presence of irradiated CHO-OKT3-CD32A (artificial antigen presenting cells) and in the presence of serial dilutions of OX40.21 or isotype control. Receptor occupancy was determined as the ratio of bound OX40 antibody to total surface OX40 using flow cytometry. Bound antibody was assessed by adding fluorescent conjugated anti-human Fc after washing the T cells. Total OX40 was determined by adding a saturating amount of OX40 antibody to the T cells. Following incubation, cells were washed and stained by adding fluorescent conjugated anti-human FC.

human OX40 [6] = target: T1, human OX40; test: Emax PK-PD model: trough serum concentration (Cmin1) against blood receptor occupancy on CD4+ T cells at C2D1, 16 cancer patients, flow cytometry; in vivo blood receptor occupancy vs trough serum concentration (Cmin1), Emax PK-PD model; not an in vitro titration
Excerpt: (§1) This Example describes a PK-PD model for predicting receptor occupancy in human patients. The drug concentration-time profile was described by a linear two-compartment PK model using population PK analysis. […] The individual drug exposure (Cmin1: trough concentration after first dose) in the alternative dose schedule was predicted based on the PPK model, which was used in subsequent PK-PD model development.
(§2) wherein drug concentration is Cmin1, the trough concentration after first dose, ROₘₐₓ is the maximum percentage of blood RO and EC₅₀ is the drug concentration corresponding to 50% of ROₘₐₓ. From this analysis, the drug EC₅₀ was estimated to be 0.094 μg/mL (FIG. 8B). The trial […] was conducted to predict blood RO at alternative dosing schedules by using the established PK-PD relationship (Emax model), as well as taking into account inter-subject variability of PK and PD (FIG. 9).

human OX40 [7] = target: T1, human OX40; test: Emax model (RO = Emax x Cmin1 / (EC50 + Cmin1)) of the trough concentration after the first dose against peripheral blood RO on CD4+ T cells at C2D1 in patients. The text prints the value rounded, 0.094 ug/mL. No Emax value is printed; the median curve runs from about 92 % at 20 mg to about 99 % at 320 mg
Excerpt: as §1, §2

B1: OX40.21 (antibody, human IgG1, kappa, V domains shown)
VH: EVQLVQSGGGLVQPGGSLRLSCAGSGFTFSSYAMYWVRQAPGKGLEWVSAIDTDAGTFYADSVRGRFTISRDNAKNSLYLQMNSLRAEDTAVYFCARLGEGYFFDYWGQGTLVTVSS
VL: EIVLTQSPATLSLSPGERATLSCRASQSVSSYLAWYQQKPGQAPRLLIYDASNRATGIPARFSGSGSGTDFTLTISSLEPEDFAVYYCQQRSNWPPTFGGGTKVEIKR
notes: also called OX40.21 (human)
EC50 of internalization (mean circle spot total intensity) in CD3/CD28-activated Tregs. The table prints no unit; the axis is 'Log nM Ab' (human OX40 [1]): 0.0779 nM | EC50 (human OX40 [2]): 0.072 nM | binding result (mouse OX40): no binding | EC50 (cynomolgus OX40): 0.068 nM | EC50 (read off the curve) (human OX40 [3]): ~0.3 nM | EC50 (read off the curve) (human OX40 [4]): ~0.3 nM | EC50 (read off the curve) (human OX40 [5]): ~0.1 nM | EC50 (human OX40 [6]): 0.094 µg/mL | EC50 (human OX40 [7]): 0.0937 µg/mL
